This note sets out measurements from IntAct's records for PubMed 26859459.

B1: Mitogen-activated protein kinase kinase kinase 21 (Homo sapiens), Q5TCX8 (parent)
chain: MALRGAAGATDTPVSSAGGAPGGSASSSSTSSGGSASAGAGLWAALYDYEARGEDELSLRRGQLVEVLSQDAAVSGDEGWWAGQVQRRLGIFPANYVAPCRPAASPAPPPSRPSSPVHVAFERLELKELIGAGGFGQVYRATWQGQEVAVKAARQDPEQDAAAAAESVRREARLFAMLRHPNIIELRGVCLQQPHLCLVLEFARGGALNRALAAANAAPDPRAPGPRRARRIPPHVLVNWAVQIARGMLYLHEEAFVPILHRDLKSSNILLLEKIEHDDICNKTLKITDFGLAREWHRTTKMSTAGTYAWMAPEVIKSSLFSKGSDIWSYGVLLWELLTGEVPYRGIDGLAVAYGVAVNKLTLPIPSTCPEPFAKLMKECWQQDPHIRPSFALILEQLTAIEGAVMTEMPQESFHSMQDDWKLEIQQMFDELRTKEKELRSREEELTRAALQQKSQEELLKRREQQLAEREIDVLERELNILIFQLNQEKPKVKKRKGKFKRSRLKLKDGHRISLPSDFQHKITVQASPNLDKRRSLNSSSSSPPSSPTMMPRLRAIQLTSDESNKTWGRNTVFRQEEFEDVKRNFKKKGCTWGPNSIQMKDRTDCKERIRPLSDGNSPWSTILIKNQKTMPLASLFVDQPGSCEEPKLSPDGLEHRKPKQIKLPSQAYIDLPLGKDAQRENPAEAESWEEAASANAATVSIEMTPTNSLSRSPQRKKTESALYGCTVLLASVALGLDLRELHKAQAAEEPLPKEEKKKREGIFQRASKSRRSASPPTSLPSTCGEASSPPSLPLSSALGILSTPSFSTKCLLQMDSEDPLVDSAPVTCDSEMLTPDFCPTAPGSGREPALMPRLDTDCSVSRNLPSSFLQQTCGNVPYCASSKHRPSHHRRTMSDGNPTPTGATIISATGASALPLCPSPAPHSHLPREVSPKKHSTVHIVPQRRPASLRSRSDLPQAYPQTAVSQLAQTACVVGRPGPHPTQFLAAKERTKSHVPSLLDADVEGQSRDYTVPLCRMRSKTSRPSIYELEKEFLS
partner: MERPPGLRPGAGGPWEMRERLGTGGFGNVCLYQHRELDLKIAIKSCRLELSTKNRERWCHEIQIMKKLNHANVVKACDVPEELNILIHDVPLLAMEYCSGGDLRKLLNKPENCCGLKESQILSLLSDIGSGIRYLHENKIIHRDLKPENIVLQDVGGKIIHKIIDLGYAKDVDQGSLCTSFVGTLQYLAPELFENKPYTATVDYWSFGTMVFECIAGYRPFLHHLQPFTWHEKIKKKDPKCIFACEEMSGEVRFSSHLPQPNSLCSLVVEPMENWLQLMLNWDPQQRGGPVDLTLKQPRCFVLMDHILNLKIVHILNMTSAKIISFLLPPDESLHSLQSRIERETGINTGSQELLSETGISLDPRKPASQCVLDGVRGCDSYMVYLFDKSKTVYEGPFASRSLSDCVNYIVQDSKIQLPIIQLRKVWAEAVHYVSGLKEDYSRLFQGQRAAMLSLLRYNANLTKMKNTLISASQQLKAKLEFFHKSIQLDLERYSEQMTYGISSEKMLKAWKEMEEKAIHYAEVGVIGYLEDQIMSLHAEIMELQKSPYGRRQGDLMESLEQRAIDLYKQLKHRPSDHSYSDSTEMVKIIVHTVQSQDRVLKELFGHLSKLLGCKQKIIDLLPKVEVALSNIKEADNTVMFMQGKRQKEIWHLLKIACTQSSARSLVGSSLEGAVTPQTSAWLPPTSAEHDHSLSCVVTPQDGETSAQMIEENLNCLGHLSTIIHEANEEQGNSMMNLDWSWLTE

This test covers variants of B1. The following applies: with ikka_human CHUK.
With K151A, the “effect of a mutation on the interaction” value is on record as “decreasing interaction strength”.
